Columns and labels:
[1] = target: T1, Cas1 (Escherichia coli, UniProt Q46896 1-305); experiment: EMSA; 5 mM EDTA; Cas1 0.1-25 nM, DNA 6 nM; EMSA: 7 mM Tris-HCl pH 8.5, 9% glycerol, 50 mM NaCl, 100 ug/ml BSA, 5 mM EDTA, 10 min ambient temperature, 6 nM DNA, 5% acrylamide TBE gel at room temperature; settings: protein: recombinant; tags: N-terminal His6; chain copies: 2; label: 5'-32P; fork; 25 nt leading arm duplex, 26 nt ssDNA flap
T1 sequence: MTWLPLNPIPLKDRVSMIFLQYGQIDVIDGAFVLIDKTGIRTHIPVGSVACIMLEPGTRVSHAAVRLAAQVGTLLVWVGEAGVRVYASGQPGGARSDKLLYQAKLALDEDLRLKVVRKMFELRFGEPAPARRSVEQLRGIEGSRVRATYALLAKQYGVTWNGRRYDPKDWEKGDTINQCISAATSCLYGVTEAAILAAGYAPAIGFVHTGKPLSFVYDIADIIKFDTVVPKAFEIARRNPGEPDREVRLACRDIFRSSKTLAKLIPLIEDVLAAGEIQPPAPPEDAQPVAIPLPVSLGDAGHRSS

[2] = target: T2, Cas2 (Escherichia coli, UniProt P45956 1-94); experiment: EMSA; 5 mM EDTA; EMSA: 7 mM Tris-HCl pH 8.5, 9% glycerol, 50 mM NaCl, 100 ug/ml BSA, 5 mM EDTA, 10 min ambient temperature, 6 nM DNA, 5% acrylamide TBE gel at room temperature; settings: protein: recombinant; tags: N-terminal His6; chain copies: 2; label: 5'-32P; fork; 25 nt leading arm duplex, 26 nt ssDNA flap
T2 sequence: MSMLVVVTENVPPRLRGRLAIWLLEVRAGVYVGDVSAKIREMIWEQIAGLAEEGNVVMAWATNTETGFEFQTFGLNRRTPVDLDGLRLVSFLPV

[3] = target: T1, Cas1; experiment: EMSA; 5 mM EDTA; Cas1 25 nM, DNA 6 nM; similar to fork-1; EMSA: 7 mM Tris-HCl pH 8.5, 9% glycerol, 50 mM NaCl, 100 ug/ml BSA, 5 mM EDTA, 10 min ambient temperature, 6 nM DNA, 5% acrylamide TBE gel at room temperature; settings: protein: recombinant; tags: N-terminal His6; chain copies: 2; label: 5'-32P; fork with 4 nt ssDNA gap at branch point

B1: fork-1 (mixed)
DNA 1: CAACGTCATAGACGATTACATTGCTACATGGAGCTGTCTAGAGGATCCGA
DNA 2: TCGGATCCTCTAGACAGCTCCATGATCACTGGCACTGGTAGAATTCGGC
DNA 3: GCCGAATTCTACCAGTGCCAGTGAT
B1: binds [1]; no binding [2].

B2: fork-1a (mixed)
DNA 1: CAACGTCATAGACGATTACATTGCTACATGGAGCTGTCTAGAGGATCCGA
DNA 2: TCGGATCCTCTAGACAGCTCCATGATCACTGGCACTGGTAGAATTCGGC
DNA 3: GCCGAATTCTACCAGTGCCAGTGAT
DNA 4: AATGTAATCGTCTATGACGTTG
B2: binds [3].

From paper PMC4678826, “Different genome stability proteins underpin primed and naïve adaptation in E. coli CRISPR-Cas immunity”
